US20070014720A1

Key:
human CD20 (human) [1] = molecular target: human CD20 (human) (UniProt P11836); assay: FACS KD on SB cells expressing CD20 (GMF against mAb concentration, nonlinear fit)
human CD20 (human) [2] = molecular target: human CD20 (human) (UniProt P11836); assay: cell-based or functional assay

Sequence of human CD20 (human) (P11836 whole entry): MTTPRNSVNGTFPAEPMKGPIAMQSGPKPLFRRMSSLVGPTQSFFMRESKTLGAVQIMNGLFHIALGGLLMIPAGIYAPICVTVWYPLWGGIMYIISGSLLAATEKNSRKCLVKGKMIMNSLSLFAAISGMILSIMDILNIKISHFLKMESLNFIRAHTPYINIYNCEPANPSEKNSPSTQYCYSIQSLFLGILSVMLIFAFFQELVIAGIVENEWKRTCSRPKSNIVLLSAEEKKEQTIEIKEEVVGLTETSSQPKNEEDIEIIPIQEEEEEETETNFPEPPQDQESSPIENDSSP

Q: How did the Kd (human CD20 (human) [1]) turn out when “B1 antibody (Beckman Coulter, Miami, Fla.)” was run?
A: 0.0341 µM

Q: How did the % Lysis Daudi 0.001 µg/ml ADCC (human CD20 (human) [2]) turn out when “Rituxan (Rituximab, Genentech Inc.) (antibody)” was run?
A: 33%

Q: What about the % Lysis Daudi 1 µg/ml ADCC (human CD20 (human) [2]) of the same substance?
A: 95%

Q: What about the % Lysis Raji 0.001 µg/ml ADCC (human CD20 (human) [2]) of the same substance?
A: 16%

Q: What about the % Lysis Raji 1 µg/ml ADCC (human CD20 (human) [2]) of the same substance?
A: 62%

Q: What about the % Lysis Ramos 0.001 µg/ml ADCC (human CD20 (human) [2]) of the same substance?
A: 5%

Q: What about the % Lysis Ramos 1 µg/ml ADCC (human CD20 (human) [2]) of the same substance?
A: 78%

Q: What about the EC50 µg/ml Daudi CDC (human CD20 (human) [2]) of the same substance?
A: 1.56 µg/mL

Q: And the EC50 µg/ml Raji CDC (human CD20 (human) [2])?
A: 0.31 µg/mL

Q: And the EC50 µg/ml Ramos Apoptosis Alamar Blue (human CD20 (human) [2])?
A: 0.222 µg/mL

Q: And the EC50 µg/ml Ramos Apoptosis Annexin V (human CD20 (human) [2])?
A: 2.59 µg/mL

Q: What about the EC50 µg/ml Ramos Apoptosis Cell Titer Glo (human CD20 (human) [2]) of the same substance?
A: 0.576 µg/mL

Q: And the EC50 µg/ml Ramos Apoptosis WST-1 (human CD20 (human) [2])?
A: 0.0326 µg/mL

Q: What about the EC50 µg/ml Ramos CDC (human CD20 (human) [2]) of the same substance?
A: 0.43 µg/mL

Q: What about the Kd (human CD20 (human) [1]) of the same substance?
A: 0.0081 µM
